Our source for the EC50, 7TD1 cell proliferation assay (MTS, absorbance values is patent publication US11629367.

This experiment deals with Mouse IL-11 receptor alpha (Cat. No. MBS553276, MyBioSource, Inc.) (mouse) (UniProt Q64385). The experiment can be described thus: cell-based or functional assay.
Sequence of UniProt Q64385 (Q64385 24-372): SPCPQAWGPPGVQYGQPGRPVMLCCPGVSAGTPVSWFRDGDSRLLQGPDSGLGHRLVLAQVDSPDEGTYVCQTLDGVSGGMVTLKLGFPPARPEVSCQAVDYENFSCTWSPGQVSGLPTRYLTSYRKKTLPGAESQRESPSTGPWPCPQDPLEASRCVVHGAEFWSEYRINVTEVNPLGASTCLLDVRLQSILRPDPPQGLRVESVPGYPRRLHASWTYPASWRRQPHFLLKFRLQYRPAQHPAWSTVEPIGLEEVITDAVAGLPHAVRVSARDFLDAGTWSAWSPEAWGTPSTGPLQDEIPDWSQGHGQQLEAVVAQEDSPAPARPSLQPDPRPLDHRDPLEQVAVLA

Consider “Reference standard of rhIL-11, derived from yeast (Hangzhou Jiuyuan Gene Engineering Company) (from UniProt P20809 23-199) (ligand)”, for which the EC50, 7TD1 cell proliferation assay (MTS, absorbance at 490 nM) was found to be 1.1 ng/mL. Next, “recombinant human IL-11 (rhIL-11) expressed in Pichia pastoris and purified by the described method (from UniProt P20809 22-199) (ligand)”: 2.2 ng/mL.
